Reference: ChEMBL document CHEMBL4043061, “Potent, Selective, Allosteric Inhibition of Human Plasmin by Sulfated Non-Saccharide Glycosaminoglycan Mimetics” (J Med Chem, 2017)

Assays:
[1] = substrate: O=c1c(OS(=O)(=O)O)c(-c2ccc(OS(=O)(=O)O)c(OS(=O)(=O)O)c2)oc2cc(OS(=O)(=O)O)cc(OCc3ccc(COc4cc(OS(=O)(=O)O)cc5oc(-c6ccc(OS(=O)(=O)O)c(OS(=O)(=O)O)c6)c(OS(=O)(=O)O)c(=O)c45)cc3)c12; conditions: Homo sapiens; 200 uM
[2] = substrate: O=c1c(O)c(-c2ccc(O)c(O)c2)oc2cc(O)cc(OCc3ccc(COc4cc(O)cc5oc(-c6ccc(O)c(O)c6)c(O)c(=O)c45)cc3)c12; conditions: Homo sapiens; 240 uM
Description: Uncompetitive allosteric inhibition of human plasmin assessed as substrate Km at 240 uM using chromogenic substrate spectrozyme PL by Michaelis-Menten plot analysis

[3] = substrate: O=c1c(OS(=O)(=O)O)c(-c2ccc(OS(=O)(=O)O)c(OS(=O)(=O)O)c2)oc2cc(OS(=O)(=O)O)cc(OCc3ccc(COc4cc(OS(=O)(=O)O)cc5oc(-c6ccc(OS(=O)(=O)O)c(OS(=O)(=O)O)c6)c(OS(=O)(=O)O)c(=O)c45)cc3)c12; conditions: Homo sapiens; 200 uM; remark: listed apart in the source
[4] = substrate: O=c1c(OS(=O)(=O)O)c(-c2ccc(OS(=O)(=O)O)c(OS(=O)(=O)O)c2)oc2cc(OS(=O)(=O)O)cc(OCc3ccc(COc4cc(OS(=O)(=O)O)cc5oc(-c6ccc(OS(=O)(=O)O)c(OS(=O)(=O)O)c6)c(OS(=O)(=O)O)c(=O)c45)cc3)c12; conditions: Homo sapiens; 40 uM
[5] = substrate: O=c1c(OS(=O)(=O)O)c(-c2ccc(OS(=O)(=O)O)c(OS(=O)(=O)O)c2)oc2cc(OS(=O)(=O)O)cc(OCc3ccc(COc4cc(OS(=O)(=O)O)cc5oc(-c6ccc(OS(=O)(=O)O)c(OS(=O)(=O)O)c6)c(OS(=O)(=O)O)c(=O)c45)cc3)c12; conditions: Homo sapiens; 8 uM
Description: Uncompetitive allosteric inhibition of human plasmin assessed as Vmax for substrate hydrolysis at 8 uM using chromogenic substrate spectrozyme PL by Michaelis-Menten plot analysis

[6] = substrate: O=c1c(O)c(-c2ccc(O)c(O)c2)oc2cc(O)cc(OCc3ccc(COc4cc(O)cc5oc(-c6ccc(O)c(O)c6)c(O)c(=O)c45)cc3)c12; conditions: Homo sapiens; 400 uM
[7] = substrate: O=c1c(OS(=O)(=O)O)c(-c2ccc(OS(=O)(=O)O)c(OS(=O)(=O)O)c2)oc2cc(OS(=O)(=O)O)cc(OCc3ccc(COc4cc(OS(=O)(=O)O)cc5oc(-c6ccc(OS(=O)(=O)O)c(OS(=O)(=O)O)c6)c(OS(=O)(=O)O)c(=O)c45)cc3)c12; conditions: Homo sapiens; 1.6 uM
Description: Uncompetitive allosteric inhibition of human plasmin assessed as Vmax for substrate hydrolysis at 1.6 uM using chromogenic substrate spectrozyme PL by Michaelis-Menten plot analysis

[8] = substrate: O=c1c(OS(=O)(=O)O)c(-c2ccc(OS(=O)(=O)O)c(OS(=O)(=O)O)c2)oc2cc(OS(=O)(=O)O)cc(OCc3ccc(COc4cc(OS(=O)(=O)O)cc5oc(-c6ccc(OS(=O)(=O)O)c(OS(=O)(=O)O)c6)c(OS(=O)(=O)O)c(=O)c45)cc3)c12; conditions: Homo sapiens; 100 uM
[9] = substrate: O=c1c(OS(=O)(=O)O)c(-c2ccc(OS(=O)(=O)O)c(OS(=O)(=O)O)c2)oc2cc(OS(=O)(=O)O)cc(OCc3ccc(COc4cc(OS(=O)(=O)O)cc5oc(-c6ccc(OS(=O)(=O)O)c(OS(=O)(=O)O)c6)c(OS(=O)(=O)O)c(=O)c45)cc3)c12; conditions: Homo sapiens; 8 uM; remark: listed apart in the source
Description: Uncompetitive allosteric inhibition of human plasmin assessed as substrate Km at 8 uM using chromogenic substrate spectrozyme PL by Michaelis-Menten plot analysis

[10] = substrate: O=c1c(OS(=O)(=O)O)c(-c2ccc(OS(=O)(=O)O)c(OS(=O)(=O)O)c2)oc2cc(OS(=O)(=O)O)cc(OCc3ccc(COc4cc(OS(=O)(=O)O)cc5oc(-c6ccc(OS(=O)(=O)O)c(OS(=O)(=O)O)c6)c(OS(=O)(=O)O)c(=O)c45)cc3)c12; conditions: Homo sapiens; 100 uM; remark: listed apart in the source
[11] = substrate: O=c1c(O)c(-c2ccc(O)c(O)c2)oc2cc(O)cc(OCc3ccc(COc4cc(O)cc5oc(-c6ccc(O)c(O)c6)c(O)c(=O)c45)cc3)c12; conditions: Homo sapiens; 400 uM; remark: listed apart in the source
[12] = substrate: O=c1c(OS(=O)(=O)O)c(-c2ccc(OS(=O)(=O)O)c(OS(=O)(=O)O)c2)oc2cc(OS(=O)(=O)O)cc(OCc3ccc(COc4cc(OS(=O)(=O)O)cc5oc(-c6ccc(OS(=O)(=O)O)c(OS(=O)(=O)O)c6)c(OS(=O)(=O)O)c(=O)c45)cc3)c12; conditions: Homo sapiens; 1.6 uM; remark: listed apart in the source
Description: Uncompetitive allosteric inhibition of human plasmin assessed as substrate Km at 1.6 uM using chromogenic substrate spectrozyme PL by Michaelis-Menten plot analysis

[13] = substrate: O=c1c(O)c(-c2ccc(O)c(O)c2)oc2cc(O)cc(OCc3ccc(COc4cc(O)cc5oc(-c6ccc(O)c(O)c6)c(O)c(=O)c45)cc3)c12; conditions: Homo sapiens; 100 uM
[14] = substrate: O=c1c(OS(=O)(=O)O)c(-c2ccc(OS(=O)(=O)O)c(OS(=O)(=O)O)c2)oc2cc(OS(=O)(=O)O)cc(OCc3ccc(COc4cc(OS(=O)(=O)O)cc5oc(-c6ccc(OS(=O)(=O)O)c(OS(=O)(=O)O)c6)c(OS(=O)(=O)O)c(=O)c45)cc3)c12; conditions: Homo sapiens; 40 uM; remark: listed apart in the source
[15] = substrate: O=c1c(O)c(-c2ccc(O)c(O)c2)oc2cc(O)cc(OCc3ccc(COc4cc(O)cc5oc(-c6ccc(O)c(O)c6)c(O)c(=O)c45)cc3)c12; conditions: Homo sapiens; 100 uM; remark: listed apart in the source
[16] = substrate: O=c1c(O)c(-c2ccc(O)c(O)c2)oc2cc(O)cc(OCc3ccc(COc4cc(O)cc5oc(-c6ccc(O)c(O)c6)c(O)c(=O)c45)cc3)c12; conditions: Homo sapiens; 240 uM; remark: listed apart in the source
Description: Competitive allosteric inhibition of human plasmin assessed as Vmax for substrate hydrolysis at 240 uM using chromogenic substrate spectrozyme PL by Michaelis-Menten plot analysis

B1: Plasminogen (Homo sapiens), P00747 (protein)
chain: MEHKEVVLLLLLFLKSGQGEPLDDYVNTQGASLFSVTKKQLGAGSIEECAAKCEEDEEFTCRAFQYHSKEQQCVIMAENRKSSIIIRMRDVVLFEKKVYLSECKTGNGKNYRGTMSKTKNGITCQKWSSTSPHRPRFSPATHPSEGLEENYCRNPDNDPQGPWCYTTDPEKRYDYCDILECEEECMHCSGENYDGKISKTMSGLECQAWDSQSPHAHGYIPSKFPNKNLKKNYCRNPDRELRPWCFTTDPNKRWELCDIPRCTTPPPSSGPTYQCLKGTGENYRGNVAVTVSGHTCQHWSAQTPHTHNRTPENFPCKNLDENYCRNPDGKRAPWCHTTNSQVRWEYCKIPSCDSSPVSTEQLAPTAPPELTPVVQDCYHGDGQSYRGTSSTTTTGKKCQSWSSMTPHRHQKTPENYPNAGLTMNYCRNPDADKGPWCFTTDPSVRWEYCNLKKCSGTEASVVAPPPVVLLPDVETPSEEDCMFGNGKGYRGKRATTVTGTPCQDWAAQEPHRHSIFTPETNPRAGLEKNYCRNPDGDVGGPWCYTTNPRKLYDYCDVPQCAAPSFDCGKPQVEPKKCPGRVVGGCVAHPHSWPWQVSLRTRFGMHFCGGTLISPEWVLTAAHCLEKSPRPSSYKVILGAHQEVNLEPHVQEIEVSRLFLEPTRKDIALLKLSSPAVITDKVIPACLPSPNYVVADRTECFITGWGETQGTFGAGLLKEAQLPVIENKVCNRYEFLNGRVQSTELCAGHLAGGTDSCQGDSGGPLVCFEKDKYILQGVTSWGLGCARPNKPGVYVRVSRFVTWIEGVMRNN
B1 was tested, and the Km [1] was 4 µM, the Km [2] was 807 µM and the Vmax [3] was 10.4 mAU/min. For the same protein, the Km [4] was 20 µM, the Vmax [5] was 29 mAU/min and the Km [6] was 1120 µM. The Vmax [7] was 36.3 mAU/min, the Vmax [8] was 15.1 mAU/min and the Km [9] was 20 µM. The Km [10] was 8 µM, the Vmax [11] was 51.3 mAU/min and the Km [12] was 50 µM. It also gave a Km [13] of 357 µM, a Vmax [14] of 22.1 mAU/min and a Vmax [15] of 51 mAU/min. The Vmax [16] was 51.7 mAU/min.
